Reference: the nanobody polyreactivity screen of Harvey et al. (2022)

Assay: yeast display, Sf9 membrane polyspecificity reagent, FACS + sequencing; frameworks hold sequencing errors
Method in brief: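 Nanobodies from a synthetic yeast display library (Saccharomyces cerevisiae BJ5465), induced 36–48 hours with galactose, were stained 1 hour at 4 °C with 10% biotinylated, detergent-solubilized Sf9 membrane reagent, enriched on streptavidin microbeads, then FACS-sorted. Anti-HA (expression) and streptavidin (reagent binding) fluorescence set low and high (top ~1%) gates. Polyreactivity labels come from the gate of origin. Genes were colony-PCR amplified, MiSeq 2 × 250 sequenced and filtered by CDR length.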

Row | Sequence | polyreactivity (PSR sort gate)
1 | QVQLVESGGGLVQEGGSLRLSCAASGSTFLKYDMGWYRQAPGNERELVAAISWDGGSTYYADSVKGRFTISRDNAKNTVYLQMNSLKPEDTAVYYCNADYDVYLTICYYYGEFDYWGQGTQVTVSS | low polyreactivity
2 | QVQLVESGGGLVQEGGSLRLSCAASGSTFSSYAMGWYRQAPGKERELVAAISWSGGSTYYADSVKGRFTISRDNAKNTVYLQMISLKPEDTAVYYCAAYTYSFRANHDYWGQGTQVTVSS | high polyreactivity
3 | QVQLVESGGGLVQEGGSLRLSCAASGSTFSWYTMGWYRQAPGKERELVAAITRGGTTYYADSVKGRFTISRDNAKNTVYLQMISLKPEDTAVYYCAARYSRDVRMGYWGQGTQVTVSS | high polyreactivity
4 | QVQLVESGGGLVQEGGSLRLSCAASGTFYDYVMGLYRPAPGKERELVATISDNDGSTYYADSVKGRFTISRDNAKNTVYLQKNSLKPEDTALYYCNAGRTWPIVADYSWLSYGSWGQGTQVTVSS | high polyreactivity
5 | QVQLVESGGGLVQEGGSLRLSCAATGSTFDANAMGWYRQAPGKERELVATISDGGSTNYADSVKGRFTISRDNAKNTVYLQMNSLKPEDTAVYYCAAVKLFLGLGYDYWGQGTQVTVSS | low polyreactivity
6 | QVQLVESGGGLVQEGGSLRLSCAPSGFIFRRNAMGAYRQAPGKERELVAAITKSGGSTYYADSVKGRFTISRDNAKNTVYLQMNSLKPEDTAVYYCAAPTWTRSSFDYWGQGTQVTVSS | high polyreactivity
7 | QVQLVESGGGLVQEGGSLRLSCSDSGRILRRYTMGWYRQAPGKERELVAAISSGGNTYYADSVKGRFTISRDNAKNTVYLQMNSLKPEDTGVDYCAARVRRYWEYDYWGKGTQVTVSS | low polyreactivity
8 | QVQLVESGGGLVQEGGSLRLSWAASGSTFARYAMGWYRQAPGKERELVAAISRRGGSTYYADSVKGRFTISRDKAKNTVYVQMHRLKPEDTGVSYCAARYGIISSFEYDYWGQGTQVTVSS | high polyreactivity
9 | QVQLVESGGGLVQEGGSLSLSCAASGFTFYYYAMGLYRQAPGKERELVASISWRGGSTYYADSVKGRFTISRDNAKNTVYLQMNSLKPEDTAVYYCAAQKRGSPGYRRDYWGQGTQVAVSS | high polyreactivity
10 | QVQLVESGGGLVQEGGSLSLSCAASGITLSLYAMGRYRQAPGKERELVAAISRSGGSTYYAYSVKGRFTISRDNAKNTVYLQMNSLKPVDTAFFYCATSWTPNYFVTSDYWGQGTQVTVSS | high polyreactivity
11 | QVQLVESGGGLVQEGGTLRLSCAASGSISIRNAMGWYRQAPGKERELVAAITYSGGSTYYADSVKGRFTISRDTAKNTVYLQMNSLKPEDTAVYYCAKDHYRFRYDYWGQGTQVTVSS | low polyreactivity
12 | QVQLVESGGGLVQERGSLRLSCAASGSIFFPYAMGWSRQAPGKDRELVAAITRGGNTKYADSVKGRFTISRDNAKNTVYIQMNSLKPEDTAVFYCAARGASIPYGYWGQGTQVTVSS | high polyreactivity
13 | QVQLVESGGGLVQGGGSLRLSCAASGFIFRYYAMGWYRQAPGKERELVAAINGRGDSTYYADSVKGRFTISRDNAKNTVYLQMNSLKPEDTAVYYCAAQGYRYLSRDRYDYWGQGTQVTVSS | high polyreactivity
14 | QVQLVESGGGLVQGGGSLRLSCAASGFIFSRYAMGWYRPAPGKERELVAAISRTGSTNYADSVKGRFTISRDNAKNTVYLQMNSLNPEDTAVYYCNARYITFNGYGYGYWEQGTQVTVSS | high polyreactivity
15 | QVQLVESGGGLVQGGGSLRLSCAASGLIFYHYAMGWYRQAPGKEREFVAAITVSGGSTSYADSVKGRFTISRDNAKNTVDLQMNSLKPEDNAVYYSADRVNYRSPGVSKGRDYWGQGTQVTVSS | low polyreactivity
16 | QVQLVESGGGLVQGGGSLRLSCAASGSIFSTYVMGWYRQGPGKERELVAAISRRGGSTYYADSVKGRFTISRDNAKNTVYLQMNSLNPADTAVYYCAADGTVGRRDYWGQGTQVTVSS | high polyreactivity
17 | QVQLVESGGGLVQGGGSLRLSCAASGSIFYPYAMGWYRQAPGKERELVARITSSTGSTYYADSVKGRCTISRATAKNTVYLQMTSLKPEDTAVYYCNARRQRNKSYNYWGQGTQVTVSS | high polyreactivity
